Results reported in paper PMC10325900, “A conserved motif in the disordered linker of human MLH1 is vital for DNA mismatch repair and its function is diminished by a cancer family mutation” (Nucleic Acids Research, 2023).
Where a chain is given by its changes, count along the chain named. Entries after “also recorded” stand apart in the source; their conditions may differ.

B1: p.Arg385Tyr: MLH1 variant (protein, UniProt P40692 2-756, looked up, variant R385Y)
DNA mismatch repair protein …: SFVAGVIRRLDETVVNRIAAGEVIQRPANAIKEMIENCLDAKSTSIQVIVKEGGLKLIQIQDNGTGIRKEDLDIVCERFTTSKLQSFEDLASISTYGFRGEALASISHVAHVTITTKTADGKCAYRASYSDGKLKAPPKPCAGNQGTQITVEDLFYNIATRRKALKNPSEEYGKILEVVGRYSVHNAGISFSVKKQGETVADVRTLPNASTVDNIRSIFGNAVSRELIEIGCEDKTLAFKMNGYISNANYSVKKCIFLLFINHRLVESTSLRKAIETVYAAYLPKNTHPFLYLSLEISPQNVDVNVHPTKHEVHFLHEESILERVQQHIESKLLGSNSSRMYFTQTLLPGLAGPSGEMVKSTTSLTSSSTSGSSDKVYAHQMVYTDSREQKLDAFLQPLSKPLSSQPQAIVTEDKTDISSGRARQQDEEMLELPAPAEVAAKNQSLEGDTTKGTSEMSEKRGPTSSNPRKRHREDSDVEMVEDDSRKEMTAACTPRRRIINLTSVLSLQEEINEQGHEVLREMLHNHSFVGCVNPQWALAQHQTKLYLLNTTKLSEELFYQILIYDFANFGVLRLSEPAPLFDLAMLALDSPESGWTEEDGPKEGLAEYIVEFLKKKAEMLADYFSLEIDEEGNLIGLPLLIDNYVPPLEGLPIFILRLATEVNWDEEKECFESLSKECAMFYSIRKQYISEESTLSGQQSEVPGSIPNSWKWTVEHIVYKALRSHILPPKHFTEDGNILQLANLPDLYKVFERC
B2: p.Val384Asp: human MLH1 missense variant, c.1151T>A (protein, UniProt P40692 2-756, looked up, variant V384D)
DNA mismatch repair protein …: B1 DNA mismatch repair protein … with V383D, Y384R
B3: p.Arg385Ala: MLH1 control variant (protein, UniProt P40692 2-756, looked up, variant R385A)
DNA mismatch repair protein …: B1 DNA mismatch repair protein … with Y384A
B4: p.Arg385Glu: MLH1 control variant (protein, UniProt P40692 2-756, looked up, variant R385E)
DNA mismatch repair protein …: B1 DNA mismatch repair protein … with Y384E
B5: p.Arg385His: human MLH1 missense variant, c.1154G>A (protein, UniProt P40692 2-756, looked up, variant R385H)
DNA mismatch repair protein …: B1 DNA mismatch repair protein … with Y384H
B6: p.Tyr379Cys: human MLH1 missense variant, c.1136A>G (protein, UniProt P40692 2-756, looked up, variant Y379C)
DNA mismatch repair protein …: B1 DNA mismatch repair protein … with Y378C, Y384R

System: G-T mismatch in a test plasmid
Assay: MMR activity of MLH1 variants (MLH1-PMS2 expressed in HEK293T cells)
Type: biochemical, human
Conditions: >3 independent experiments; for DNA mismatch repair activity of MLH1 variant (in words): variant MLH1 + PMS2 transfected in HEK293T, relative to wildtype, 37°C, 15 min; for effect of second p.Arg385 alteration on the MMR defect of p.Tyr750Arg: double variants (Figure 6D)
Procedure: Sequence variants of the MLH1 expression vector were generated using the Q5 site directed mutagenesis system (New England Biolabs, Ipswich, MA, USA) with the appropriate primers (Supplementary Table S1).
Mismatch repair activity was assessed as described in detail before ([79],[81]) (Supplementary Figure S3). […] Mismatched DNA plasmid substrate (Supplementary Figure S3) prepared according to previously published procedures ([81–83]) was added, and reactions in a final volume of 25 μl were incubated at 37°C for 15 min. Repair efficiency was scored by purifying the mismatched DNA plasmid from the reaction and assessing the fraction of homoduplex sequence by restriction digestion of the mismatched site using EcoRV. The substrate was additionally linearized with AseI.
Figure 2. Expression and DNA mismatch repair activity of human and artificial ConMot variants. […] As a negative control, one sample was only transfected with an EGFP. After 48 h, native whole cell protein extracts were prepared. Expression was assessed by SDS-PAGE and western blotting. (A) Representative western blot of MLH1 wildtype and variant expressions. Average expression levels of MLH1 of > 5 independent transfections were determined and are given in the bar diagram below. (B) The extracts of the transfections were used to assess the DNA mismatch repair activities of the variant MLH1 proteins in comparison with wildtype (WT) MLH1-PMS2 as detailed in Materials and Methods and as shown in Supplementary Figure S3. The EGFP-transfected extract sample served as negative control. Representative agarose gels are shown in the top panel.
Figure 3. Analysis of the relevance of ConMot core and surrounding sequences. MLH1 proteins containing either the wildtype human ConMot motif sequence or variants were directly compared concerning expression and MMR activity. (A) Comparison of the ConMot variants used: the core-scramble variant sequence, the full-scramble variant sequence and an animal-plant hybrid that contains the ConMot consensus sequence of plants as it exists, for example, in walnut and mungo bean (Vigna radiata and Juglans regia). (B) Comparison of conservation in the animal versus plant ConMot in WebLogo representation. Specific differences in conservation within the sequences flanking the core MVRTD sequence are marked by red arrows above the animal sequence. (C) Western blot of the expression of the different MLH1-ConMot wildtype (WT) and the variants shown in A after transfection in HEK293T cells; negative control: transfection of EGFP. (D) MMR activities were assessed in direct comparison to negative control and wildtype human MLH1 as in Figure 2B. Average activities and standard deviations were calculated from >3 independent experiments.
Figure 6. The MMR defect of p.Tyr750Arg is partly compensated by p.Arg385Tyr. […] (B) The side chain of the highly conserved Arg385 is predicted to be in proximity to the side chain of the highly conserved Tyr750 residue. (C) MLH1-PMS2-deficient HEK293T cells were co-transfected with the indicated single- and double variants of MLH1 and PMS2. Protein extracts were prepared, separated by SDS-PAGE, blotted and probed for MLH1 protein expression. (D) MMR assays were performed to test DNA mismatch repair activity as detailed in Materials and Methods. One representative agarose gel is shown, and average repair values in comparison to wildtype and standard deviations of >3 independent experiments are shown in a bar diagram. A two-sided t-test was performed for testing significance of the difference in repair activity of p.Tyr750Arg in comparison to the double variant p.Arg385Tyr + Tyr750Arg.
Mismatched DNA plasmid substrate and principle of MMR assay.
The MMR assay is performed using as substrate a modified 2 kbp derivative of the pUC vector (pUC
CPDC Bb v) originally generated by Wang and Hays and further modified by Plotz et al. and Gonzáles-
Acosta et al . […]

Molecule	DNA mismatch repair activity of MLH1 variant (in words)	also measured
p.Arg385Pro: human MLH1 missense variant in the MVRTD motif	a defect similarly strong as the core-scramble variant; also recorded: most pronounced effect; also recorded: mismatch repair defect	DNA mismatch repair activity of MLH1 variant (in words) (listed as proline substitution of Arg385): loss of mismatch repair activity
ΔConMot: deletion variant in which the conserved ConMot sequence comprising 20 residues was removed	fully abrogated mismatch repair	DNA mismatch repair activity of MLH1 variant (in words) (listed as deletion): complete loss of MMR activity; DNA mismatch repair activity of MLH1 variant (in words) (listed as deletion of the ConMot): fully deficient in MMR
B1	well tolerated	–
B2	no detectable impairment of MMR	–
B3	a defect similarly strong as the core-scramble variant	effect of second p.Arg385 alteration on the MMR defect of p.Tyr750Arg: additionally aggravated the defect
B4	a defect similarly strong as the core-scramble variant	effect of second p.Arg385 alteration on the MMR defect of p.Tyr750Arg: additionally aggravated the defect
B5	tolerated; also recorded: did not affect catalytic activity	–
B6	did not find a catalytic defect	–
